This is an account of results in the supplement of paper PMC12042874.

± gives the uncertainty stated by the source.

The data set can be described thus: amyloid nucleation score (Sup35N fusion, yeast selection) (log enrichment); library NNK3; higher = more nucleation; inactive = no reads after selection. In a few lines: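 Nucleation score: DiMSum log enrichment of output over input reads, centred on the mode score of non-aggregating sequences. Only sequences with at least 100 input reads were kept. Reads came from Illumina sequencing of plasmid inserts before and after 7 days of growth at 30°C without adenine and uracil, in psi-negative yeast expressing Sup35N fused to peptides of 20 random codons after 24 hours of induction with 100 μM copper sulfate.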
Turning to IKMGVRYGRNTVWTARCGSG, the amyloid nucleation score worked out at 0.222 ± 0.6.

For GLCNNHIGKIFTYWNTPLDY, the amyloid nucleation score entry is “inactive”.

As for NWDWADE, the amyloid nucleation score entry is “inactive”.

For TSPGFYGWMSNSTSSNDIVA, the amyloid nucleation score entry is “inactive”.

Take QKHISY: the amyloid nucleation score entry is “inactive”.

Turning to DFCLCNIRVFPEYRSHYGFG, the amyloid nucleation score result was “inactive”.

On to RLASGLNPFYVRG, for which the amyloid nucleation score entry was “inactive”.

INTGQMQSAYETNLVMRKLA: the amyloid nucleation score result was “inactive”.

Consider KSRTIQECMAATYVSVFECF, for which the amyloid nucleation score entry was “inactive”.

As for LILYIVAISCSSARSLLRVG, the amyloid nucleation score result is “inactive”.

Consider LSVMNSVRTWYIIDFATFSC, for which the amyloid nucleation score entry is “inactive”.

For YQLFWRLALFCPVYGCVYLM, the amyloid nucleation score was -0.027 ± 0.35.

Regarding WDAPMSNVDRL, the amyloid nucleation score result is “inactive”.

Turning to KRLTMDLFDNCPMLYECEFT, the amyloid nucleation score entry was “inactive”.

Turning to LKVYR, the amyloid nucleation score entry is “inactive”.

The substance AWVHLPGQESGYYCCFMNEM gave an amyloid nucleation score of 1.63 ± 0.12.

As for SSSCVSSGCDVWA, the amyloid nucleation score result is “inactive”.

WRSASGVD: the amyloid nucleation score result was “inactive”.

For ALNLVLLLCVTRRSRLSQSS, the amyloid nucleation score result is “inactive”.

NGDHRRCSLIT: the amyloid nucleation score entry is “inactive”.

On to CLWRRCMPSHPMVEVSRLIW, for which the amyloid nucleation score result was “inactive”.

For the substance HMIRAVFLSCMSASILVTIK, the amyloid nucleation score was -0.366 ± 0.53.

As to IFHRD, the amyloid nucleation score entry was “inactive”.

In the case of RCFYKRYNYLS, the amyloid nucleation score result was “inactive”.

With ILLMLSVQGNLLKRMRILSM, the amyloid nucleation score entry is “inactive”.

In the case of RLSRSRKRYFFGFR, the amyloid nucleation score entry was “inactive”.

For the substance YDRNLNMCLQEMHRNIR, the amyloid nucleation score result is “inactive”.

With RVRRGSHCNTFKKSLRLRCA, the amyloid nucleation score result is “inactive”.

On to SSSPVMYCMFLRSRSGRDYK, for which the amyloid nucleation score entry was “inactive”.

As to CNLYPCPYSKITDTAMLLGC, the amyloid nucleation score result is “inactive”.

Consider SRFLSIRELRFWYSMNRWGI, for which the amyloid nucleation score result was “inactive”.

As for RCIVSRLTWGTILISFLQNR, the amyloid nucleation score entry is “inactive”.

Turning to VAKLKRTWTVWLVIYSRKSW, the amyloid nucleation score entry is “inactive”.

With TYVVMGFRCETFRIHNGLRR, the amyloid nucleation score entry is “inactive”.

Turning to CFPLSVK, the amyloid nucleation score result is “inactive”.

Turning to RMENWLRCL, the amyloid nucleation score result is “inactive”.

For VMTAVRAD, the amyloid nucleation score result is “inactive”.

For SNIRVKFHTPSIGMRCLRTR, the amyloid nucleation score result was “inactive”.

On to ASVMLNFC, for which the amyloid nucleation score result is “inactive”.

As to VYWTEWTCMDIDGIQFLVNV, the amyloid nucleation score result was “inactive”.

On to TGYPGPIKFRRIFYANYYSF, for which the amyloid nucleation score result was “inactive”.

In the case of KMQCPNYACGCKDCVYTNFY, the amyloid nucleation score entry was “inactive”.

The substance LLYNTMSLSSSWEY gave an amyloid nucleation score of 0.893 ± 0.17.

The substance KTYFRHTVRNTSSV displayed an amyloid nucleation score of 1.52 ± 0.11.

For FLLKEWLK, the amyloid nucleation score is -0.626 ± 0.9.

RARLMITYYLTDQASDNRYV displayed an amyloid nucleation score of 0.799 ± 0.28.

Regarding YDDVVVI, the amyloid nucleation score entry is “inactive”.

In the case of MLHASV, the amyloid nucleation score entry is “inactive”.

Turning to SSKFRRLLGVIMMADLMQVY, the amyloid nucleation score result is “inactive”.

As to GFTRKFSFYKRHQSVWITRR, the amyloid nucleation score result was “inactive”.

In the case of NISLLWDGAFCIYVCLLWRG, the amyloid nucleation score is -0.438 ± 0.9.

With ELRSIR, the amyloid nucleation score entry is “inactive”.

In turn, CVSIKIASPPF registered an amyloid nucleation score of 0.43 ± 0.3.

For the substance ASHRGYRQRRKDVFHGIEA, the amyloid nucleation score entry was “inactive”.

On to PVHSFNLAIYMRLFHVWPVF, for which the amyloid nucleation score entry was “inactive”.

For the substance YVVHRLSRVFQLANLYYYAK, the amyloid nucleation score entry was “inactive”.

Turning to DLQLRNWCLWVSWWN, the amyloid nucleation score result was “inactive”.

As to VGYTNLVFGDLLLFCMFNWD, the amyloid nucleation score amounted to 0.109 ± 0.45.

On to MSCYN, for which the amyloid nucleation score result is “inactive”.

Consider DTWRMFWPLVVLNCADGAPG, for which the amyloid nucleation score entry was “inactive”.

Turning to SFAGYRQIGRQGVWVIQVRH, the amyloid nucleation score entry is “inactive”.

For the substance TFVNLFIVPGKGQSVTGGCE, the amyloid nucleation score was determined as 1.45 ± 0.13.

VKLKNLSCKRLLRRHSACHR: the amyloid nucleation score entry was “inactive”.

As to ILLLRGDGEACFNRVNDNSF, the amyloid nucleation score result is “inactive”.

As for ASLLLTYWVVTEVCRLDLGL, the amyloid nucleation score result was “inactive”.

In turn, MPWKSMAHFYALEFDLRCLR yielded an amyloid nucleation score of 0.619 ± 0.22.

For FDGFGMDNIWKTFRNPHLMG, the amyloid nucleation score entry was “inactive”.

Regarding AAEDRSWSHPATQFLLVVRQ, the amyloid nucleation score entry is “inactive”.

As to DMWYRYYMSLGSCKRGSVWK, the amyloid nucleation score entry was “inactive”.

With PVGVLYTSANGTDFVNIVRD, the amyloid nucleation score result was “inactive”.

Turning to GYYLLTVCGDWCSVSVHSGF, the amyloid nucleation score turned out to be 2.13 ± 0.078.

For the substance SGLWW, the amyloid nucleation score result was “inactive”.

Turning to SRRVRAYIRVFGLCKGFAEC, the amyloid nucleation score result was “inactive”.

Turning to LTFISLSLGPDSRFSMTKYY, the amyloid nucleation score result was “inactive”.

As for NLGGAPVL, the amyloid nucleation score entry is “inactive”.

As to RFSIPMLQRCLWLTGPVCPI, the amyloid nucleation score entry is “inactive”.

Turning to KRTQDCMDRPRMLAAKASPS, the amyloid nucleation score result was “inactive”.

With CYRRSYASKLSDV, the amyloid nucleation score result is “inactive”.

Consider NYFYRPYSEDSVITQMIVVV, for which the amyloid nucleation score entry is “inactive”.

For RDRCISFEYAVQTCHYECRP, the amyloid nucleation score was -0.294 ± 0.74.

In the case of DQECRA, the amyloid nucleation score result is “inactive”.

On to SKLFVSVSTTIYFEEPSPA, for which the amyloid nucleation score result is “inactive”.

As for ISVLERLGYMFVSRHMLLVW, the amyloid nucleation score result was “inactive”.

For the substance NLSLFWMWELGKFYHGDRTA, the amyloid nucleation score came out at 2.23 ± 0.066.

For the substance YFSQVGRDCMFR, the amyloid nucleation score entry was “inactive”.

Take FDTFTMTEDSNPEKSECGLK: the amyloid nucleation score entry was “inactive”.

Take FLPRFGNHLTIRQKVRRTSG: the amyloid nucleation score result is “inactive”.

On to RVYMPAAKSINYEPNITRM, for which the amyloid nucleation score entry was “inactive”.

LVGNHVSVAIISLVPLSFPH registered an amyloid nucleation score of 2.06 ± 0.067.

FNLFRNLIMGNCSALMMDQP: the amyloid nucleation score result was “inactive”.

For the substance VSSTVGMV, the amyloid nucleation score stood at 0.175 ± 0.29.

As to LHPYHYIWKMAHL, the amyloid nucleation score result is “inactive”.

Turning to HNPLVRFAQHLLITEDQCMN, the amyloid nucleation score result is “inactive”.

As to CRLELPMGSTTDDDRGQKVD, the amyloid nucleation score is -0.014 ± 0.53.

As to LTFSSSHCVIMWQFLCKLVG, the amyloid nucleation score entry is “inactive”.

For the substance TMYIAHGELGFIRNHLDISR, the amyloid nucleation score came out at 1.04 ± 0.11.

With FMPMFLRICCTMMLMWLFAC, the amyloid nucleation score entry is “inactive”.

Regarding YVCCYARNDRRFSWERRHLS, the amyloid nucleation score entry was “inactive”.

On to IYYHIETSSAVASWYWRCAT, for which the amyloid nucleation score result is “inactive”.

In the case of GVNCLSLGSKIICGSTGWFL, the amyloid nucleation score is 2.47 ± 0.087.

For the substance YTWDVGHLKNSSSVYWKLLR, the amyloid nucleation score result is “inactive”.

Turning to ASLTYY, the amyloid nucleation score result was “inactive”.

In the case of YRYLVFLRLNLSLRILFGFK, the amyloid nucleation score entry is “inactive”.

Take SMWYLVLN: the amyloid nucleation score result was “inactive”.

On to NPRNMTPSLVFTDWLS, for which the amyloid nucleation score entry was “inactive”.

In turn, DTFACCPRWNLCGENTLPYI displayed an amyloid nucleation score of 2.33 ± 0.06.

As to LDVSLVVVMPIGLRTEWMSG, the amyloid nucleation score result is “inactive”.

NYGFGRVSAFYHQLA: the amyloid nucleation score entry was “inactive”.

In the case of FYHVTGLFT, the amyloid nucleation score entry is “inactive”.

FKAMTFAYGYLTVGLSVVGV: the amyloid nucleation score result is “inactive”.

Consider CHYFNNLACYGSRIEMT, for which the amyloid nucleation score result was “inactive”.

With WLVYVVLRM, the amyloid nucleation score entry is “inactive”.

With TWCSIMDLLVQLRVRNLFGK, the amyloid nucleation score entry is “inactive”.

Turning to MDEVWFPSKGCDLAVRNCLM, the amyloid nucleation score entry is “inactive”.

Regarding RTPPLRTQLESKSIFKEMAR, the amyloid nucleation score entry was “inactive”.

As to FGLNSCTSYKYQLSMSGFST, the amyloid nucleation score was -0.491 ± 0.66.

In the case of SILYD, the amyloid nucleation score entry is “inactive”.

SFELVQWDS: the amyloid nucleation score entry was “inactive”.

For the substance SLILENLFVSFLTSKIILGF, the amyloid nucleation score result was “inactive”.

In the case of KLMLHNEYMPGVQLLLNQYK, the amyloid nucleation score was 0.436 ± 0.46.

As for WGLGAINIDMRRRLDPRCKR, the amyloid nucleation score was determined as 0.312 ± 0.32.

In turn, VSMVPRNIWCEMFCQTHADI gave an amyloid nucleation score of 1.26 ± 0.1.

For AYWCG, the amyloid nucleation score entry was “inactive”.

Turning to DVSYYERGSSVHYTHSD, the amyloid nucleation score result is “inactive”.

For NTYVIVPWKLLTNFDEFPHR, the amyloid nucleation score entry is “inactive”.

For VWILCNRPKRRMIYLTQCRM, the amyloid nucleation score entry was “inactive”.

Consider VIHEDMVLTGF, for which the amyloid nucleation score entry was “inactive”.

CCSRACEFVAVKFNRSSYNL: the amyloid nucleation score entry is “inactive”.

Regarding SCGYTLWLYRCEIQRRV, the amyloid nucleation score result was “inactive”.

On to GISILLSSYPRMCLLRLVGL, for which the amyloid nucleation score entry is “inactive”.

Consider NFFNLLGMKLVR, for which the amyloid nucleation score entry is “inactive”.
